Data on 2 molecules can be found in patent US20160340429A1 (KADMON, published 2016).

The target of one assay is T1, human PDL2 (human, UniProt Q9BQ51 20-219, limits assumed).
T1 sequence (looked up): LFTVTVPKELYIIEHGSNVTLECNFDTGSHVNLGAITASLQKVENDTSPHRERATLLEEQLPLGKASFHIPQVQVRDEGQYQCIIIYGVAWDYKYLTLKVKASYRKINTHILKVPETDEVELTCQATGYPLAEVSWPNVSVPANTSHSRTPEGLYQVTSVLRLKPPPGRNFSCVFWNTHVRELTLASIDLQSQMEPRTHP
The assay is described as follows: binding assay of FIG. 17.

The target in the next assay is T2, soluble human PDL1 (human, UniProt Q9NZQ7 19-239, limits assumed).
T2 construct: May be the same protein as the human PDL1-Fc; also called soluble PDL1
As to the kind of experiment: binding assay of FIG. 17.

The target of another assay is T3, soluble mouse PDL1 (mouse, UniProt Q9EP73 19-238, limits assumed).
T3 construct: May be the same protein as the murine PDL1-Fc
As to the kind of experiment: binding assay of FIG. 17.

Assay [1] deals with T4, human PD-L1 on cells (PDLI-293 / HEK-293 cells expressing PD-L1, MDA-MB-231 cells, activated CD4 cells, … (human, UniProt Q9NZQ7 19-290)).
T4 construct: whole, on cells
The assay is described as follows: binding to MDA-MB-231 cells, FIG. 19.

T3 sequence (Q9EP73 19-238 limits assumed): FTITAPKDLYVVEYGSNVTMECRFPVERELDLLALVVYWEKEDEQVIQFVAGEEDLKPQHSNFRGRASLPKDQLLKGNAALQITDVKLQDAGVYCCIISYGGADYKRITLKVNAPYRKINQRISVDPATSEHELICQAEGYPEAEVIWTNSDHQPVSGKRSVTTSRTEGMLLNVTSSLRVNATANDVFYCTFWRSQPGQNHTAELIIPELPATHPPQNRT
T2 sequence (Q9NZQ7 19-239 limits assumed): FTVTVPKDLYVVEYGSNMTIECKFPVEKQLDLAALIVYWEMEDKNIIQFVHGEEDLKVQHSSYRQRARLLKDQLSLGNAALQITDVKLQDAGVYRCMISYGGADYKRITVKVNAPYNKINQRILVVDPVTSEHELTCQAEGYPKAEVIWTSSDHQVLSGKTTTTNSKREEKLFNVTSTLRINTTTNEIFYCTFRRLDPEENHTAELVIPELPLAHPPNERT
T4 sequence (Q9NZQ7 19-290): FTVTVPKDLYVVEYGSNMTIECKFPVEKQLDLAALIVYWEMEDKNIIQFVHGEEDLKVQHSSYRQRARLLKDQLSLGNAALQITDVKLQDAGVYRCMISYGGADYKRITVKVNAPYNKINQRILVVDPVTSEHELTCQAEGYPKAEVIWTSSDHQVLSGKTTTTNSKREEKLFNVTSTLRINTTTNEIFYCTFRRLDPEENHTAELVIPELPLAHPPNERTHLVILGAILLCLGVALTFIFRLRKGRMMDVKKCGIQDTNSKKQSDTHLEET

B1: tccD7_#114 (antibody, V domains shown)
VH: EVQLLESGGGLVQPGGSLRLSCAASGFTFSSYLMVWVRQAPGKGLEWVSSIYPSGGITFYADSVKGRFTISRDNSKNTLYLQMNSLRAEDTAIYYCARIKLGTVTTVDYWGQGTLVTVSS
VL: QSALTQPASVSGSPGQSITISCTGTSSDVGAYNYVSWYQQHPGKAPKLMIYDVSNRPSGVSNRFSGSKSGNTASLTISGLQAEDEADYYCSSYTSSSTRVFGTGTKVTVLG
notes: converted to IgG and to an IgG with two Leu-Ala substitutions
As to B1, the binding result with human PDL2 is on record as “no binding”; in the assay with soluble human PDL1, “binds”; in the assay with soluble mouse PDL1, “binds”; in assay [1], “binds”.

B2: tccD7_#102 (antibody, V domains shown)
VH: EVQLLESGGGLVQPGGSLRLSCAASGFTFSAYRMFWVRQAPGKGLEWVSSIYPSGGITFYADSVKGRFTISRDNSKNTLYLQMNSLRAEDTAIYYCARIKLGTVTTVDYWGQGTLVTVSS
VL: QSALTQPASVSGSPGQSITISCTGTSSDVGAYNYVSWYQQHPGKAPKLMIYDVSNRPSGVSNRFSGSKSGNTASLTISGLQAEDEADYYCSSYTSSSTRVFGTGTKVTVLG
notes: converted to IgG and to an IgG with two Leu-Ala substitutions; also called tccD7_#2; cD7_#2
Take B2: the binding result with human PDL2 was “no binding”; with soluble human PDL1 it was “binds”; with soluble mouse PDL1, “binds”; in assay [1], “binds”.
